According to article PMC12572175 (2025):
Where a chain is given by its changes, count along the chain named. Numbers in names are those of the source.

B1: n501 T77A (antibody)
chain: EVQLVESGGGLVQPGGSLRLSCAASDFTFRNYEMSWVRQAPGKGLEWVSSISGSGGSTYYAHSLKGRFAISRDNSKNTLYLQMNSLRAEDTAIYYCARLRDGFNNGFDYWGQGTLVTVSS
B2: n501 N92A (antibody)
chain: B1 chain with A69T, N84A

Target: Protein A domain D (Staphylococcus aureus)
Assay: BLI

Binder	Kd
B1	324 nM
B2	328 nM
